Ends that are not written are not given here. * marks the point of attachment. Palmitoyl = CCCCCCCCCCCCCCCC(=O)*; NHhexadecyl = CCCCCCCCCCCCCCCCN*
B1: CXCR-4 receptor Compound No. 43 (peptide)
peptide: Palmitoyl-KKLRSMTDKYRLH-NH2
SMILES: CCCCCCCCCCCCCCCC(=O)N[C@@H](CCCCN)C(=O)N[C@@H](CCCCN)C(=O)N[C@@H](CC(C)C)C(=O)N[C@@H](CCCNC(=N)N)C(=O)N[C@@H](CO)C(=O)N[C@@H](CCSC)C(=O)N[C@H](C(=O)N[C@@H](CC(=O)O)C(=O)N[C@@H](CCCCN)C(=O)N[C@@H](Cc1ccc(O)cc1)C(=O)N[C@@H](CCCNC(=N)N)C(=O)N[C@@H](CC(C)C)C(=O)N[C@@H](Cc1c[nH]cn1)C(N)=O)[C@@H](C)O
B2: Compound No. 44 (Pal-KKLRSMTDKYRL-amide) (peptide)
peptide: Palmitoyl-KKLRSMTDKYRL-NH2
SMILES: CCCCCCCCCCCCCCCC(=O)N[C@@H](CCCCN)C(=O)N[C@@H](CCCCN)C(=O)N[C@@H](CC(C)C)C(=O)N[C@@H](CCCNC(=N)N)C(=O)N[C@@H](CO)C(=O)N[C@@H](CCSC)C(=O)N[C@H](C(=O)N[C@@H](CC(=O)O)C(=O)N[C@@H](CCCCN)C(=O)N[C@@H](Cc1ccc(O)cc1)C(=O)N[C@@H](CCCNC(=N)N)C(=O)N[C@@H](CC(C)C)C(N)=O)[C@@H](C)O
B3: CXCR4 i1 loop compound 45 (peptide)
peptide: Palmitoyl-KKLRSMTDKYR-NH2
SMILES: CCCCCCCCCCCCCCCC(=O)N[C@@H](CCCCN)C(=O)N[C@@H](CCCCN)C(=O)N[C@@H](CC(C)C)C(=O)N[C@@H](CCCNC(=N)N)C(=O)N[C@@H](CO)C(=O)N[C@@H](CCSC)C(=O)N[C@H](C(=O)N[C@@H](CC(=O)O)C(=O)N[C@@H](CCCCN)C(=O)N[C@@H](Cc1ccc(O)cc1)C(=O)N[C@@H](CCCNC(=N)N)C(N)=O)[C@@H](C)O
B4: CXCR4 i1 loop compound 46 (peptide)
peptide: Palmitoyl-KKLRSMTDKY-NH2
SMILES: CCCCCCCCCCCCCCCC(=O)N[C@@H](CCCCN)C(=O)N[C@@H](CCCCN)C(=O)N[C@@H](CC(C)C)C(=O)N[C@@H](CCCNC(=N)N)C(=O)N[C@@H](CO)C(=O)N[C@@H](CCSC)C(=O)N[C@H](C(=O)N[C@@H](CC(=O)O)C(=O)N[C@@H](CCCCN)C(=O)N[C@@H](Cc1ccc(O)cc1)C(N)=O)[C@@H](C)O
B5: CXCR4 i1 loop compound 49 (peptide)
peptide: Palmitoyl-MGYQKKLRSMTDKYRI-NH2
SMILES: CCCCCCCCCCCCCCCC(=O)N[C@@H](CCSC)C(=O)NCC(=O)N[C@@H](Cc1ccc(O)cc1)C(=O)N[C@@H](CCC(N)=O)C(=O)N[C@@H](CCCCN)C(=O)N[C@@H](CCCCN)C(=O)N[C@@H](CC(C)C)C(=O)N[C@@H](CCCNC(=N)N)C(=O)N[C@@H](CO)C(=O)N[C@@H](CCSC)C(=O)N[C@H](C(=O)N[C@@H](CC(=O)O)C(=O)N[C@@H](CCCCN)C(=O)N[C@@H](Cc1ccc(O)cc1)C(=O)N[C@@H](CCCNC(=N)N)C(=O)N[C@H](C(N)=O)[C@@H](C)CC)[C@@H](C)O
B6: CXCR4 i1 loop compound 54 (peptide)
peptide: MGYQKKLRSMTDKYRLHL-NH2
modifications: not fully specified (N-terminus); also: N-terminal T-L: Myr, dual lipid backbone
B7: CXCR4 i1 loop compound 55 (peptide)
peptide: Palmitoyl-MGYQKKLRSMTDKYRLHLSV-NH2
SMILES: CCCCCCCCCCCCCCCC(=O)N[C@@H](CCSC)C(=O)NCC(=O)N[C@@H](Cc1ccc(O)cc1)C(=O)N[C@@H](CCC(N)=O)C(=O)N[C@@H](CCCCN)C(=O)N[C@@H](CCCCN)C(=O)N[C@@H](CC(C)C)C(=O)N[C@@H](CCCNC(=N)N)C(=O)N[C@@H](CO)C(=O)N[C@@H](CCSC)C(=O)N[C@H](C(=O)N[C@@H](CC(=O)O)C(=O)N[C@@H](CCCCN)C(=O)N[C@@H](Cc1ccc(O)cc1)C(=O)N[C@@H](CCCNC(=N)N)C(=O)N[C@@H](CC(C)C)C(=O)N[C@@H](Cc1c[nH]cn1)C(=O)N[C@@H](CC(C)C)C(=O)N[C@@H](CO)C(=O)N[C@H](C(N)=O)C(C)C)[C@@H](C)O
B8: CXCR4 i1 loop compound 59 (peptide)
peptide: Ac-MGYQKKLRSMTDK-NHhexadecyl
SMILES: CCCCCCCCCCCCCCCCNC(=O)[C@H](CCCCN)NC(=O)[C@H](CC(=O)O)NC(=O)[C@@H](NC(=O)[C@H](CCSC)NC(=O)[C@H](CO)NC(=O)[C@H](CCCNC(=N)N)NC(=O)[C@H](CC(C)C)NC(=O)[C@H](CCCCN)NC(=O)[C@H](CCCCN)NC(=O)[C@H](CCC(N)=O)NC(=O)[C@H](Cc1ccc(O)cc1)NC(=O)CNC(=O)[C@H](CCSC)NC(C)=O)[C@@H](C)O
B9: CXCR4 i1 loop compound 69 (peptide)
peptide: Palmitoyl-SGYQKKLRSSTD-NH2
SMILES: CCCCCCCCCCCCCCCC(=O)N[C@@H](CO)C(=O)NCC(=O)N[C@@H](Cc1ccc(O)cc1)C(=O)N[C@@H](CCC(N)=O)C(=O)N[C@@H](CCCCN)C(=O)N[C@@H](CCCCN)C(=O)N[C@@H](CC(C)C)C(=O)N[C@@H](CCCNC(=N)N)C(=O)N[C@@H](CO)C(=O)N[C@@H](CO)C(=O)N[C@H](C(=O)N[C@@H](CC(=O)O)C(N)=O)[C@@H](C)O
B10: CXCR4 i1 loop compound 35 (peptide)
peptide: Palmitoyl-VMGYQKKLRSMTD-NH2
SMILES: CCCCCCCCCCCCCCCC(=O)N[C@H](C(=O)N[C@@H](CCSC)C(=O)NCC(=O)N[C@@H](Cc1ccc(O)cc1)C(=O)N[C@@H](CCC(N)=O)C(=O)N[C@@H](CCCCN)C(=O)N[C@@H](CCCCN)C(=O)N[C@@H](CC(C)C)C(=O)N[C@@H](CCCNC(=N)N)C(=O)N[C@@H](CO)C(=O)N[C@@H](CCSC)C(=O)N[C@H](C(=O)N[C@@H](CC(=O)O)C(N)=O)[C@@H](C)O)C(C)C
B11: CXCR4 i1 loop compound 36 (peptide)
peptide: Palmitoyl-MGYQKKLRSMTDK-NH2
SMILES: CCCCCCCCCCCCCCCC(=O)N[C@@H](CCSC)C(=O)NCC(=O)N[C@@H](Cc1ccc(O)cc1)C(=O)N[C@@H](CCC(N)=O)C(=O)N[C@@H](CCCCN)C(=O)N[C@@H](CCCCN)C(=O)N[C@@H](CC(C)C)C(=O)N[C@@H](CCCNC(=N)N)C(=O)N[C@@H](CO)C(=O)N[C@@H](CCSC)C(=O)N[C@H](C(=O)N[C@@H](CC(=O)O)C(=O)N[C@@H](CCCCN)C(N)=O)[C@@H](C)O
B12: CXCR4 i1 loop compound 37 (peptide)
peptide: Palmitoyl-MGYQKKLRSMTDKY-NH2
SMILES: CCCCCCCCCCCCCCCC(=O)N[C@@H](CCSC)C(=O)NCC(=O)N[C@@H](Cc1ccc(O)cc1)C(=O)N[C@@H](CCC(N)=O)C(=O)N[C@@H](CCCCN)C(=O)N[C@@H](CCCCN)C(=O)N[C@@H](CC(C)C)C(=O)N[C@@H](CCCNC(=N)N)C(=O)N[C@@H](CO)C(=O)N[C@@H](CCSC)C(=O)N[C@H](C(=O)N[C@@H](CC(=O)O)C(=O)N[C@@H](CCCCN)C(=O)N[C@@H](Cc1ccc(O)cc1)C(N)=O)[C@@H](C)O
B13: CXCR4 i1 loop compound 39 (peptide)
peptide: Palmitoyl-MGYQKKLRSMTDKYRLHL-NH2
SMILES: CCCCCCCCCCCCCCCC(=O)N[C@@H](CCSC)C(=O)NCC(=O)N[C@@H](Cc1ccc(O)cc1)C(=O)N[C@@H](CCC(N)=O)C(=O)N[C@@H](CCCCN)C(=O)N[C@@H](CCCCN)C(=O)N[C@@H](CC(C)C)C(=O)N[C@@H](CCCNC(=N)N)C(=O)N[C@@H](CO)C(=O)N[C@@H](CCSC)C(=O)N[C@H](C(=O)N[C@@H](CC(=O)O)C(=O)N[C@@H](CCCCN)C(=O)N[C@@H](Cc1ccc(O)cc1)C(=O)N[C@@H](CCCNC(=N)N)C(=O)N[C@@H](CC(C)C)C(=O)N[C@@H](Cc1c[nH]cn1)C(=O)N[C@@H](CC(C)C)C(N)=O)[C@@H](C)O

What follows are binders tested against CXCR4 receptor (human, UniProt P61073 1-352) (assay: cell-based or functional assay).
Chain of CXCR4 receptor (P61073 whole entry): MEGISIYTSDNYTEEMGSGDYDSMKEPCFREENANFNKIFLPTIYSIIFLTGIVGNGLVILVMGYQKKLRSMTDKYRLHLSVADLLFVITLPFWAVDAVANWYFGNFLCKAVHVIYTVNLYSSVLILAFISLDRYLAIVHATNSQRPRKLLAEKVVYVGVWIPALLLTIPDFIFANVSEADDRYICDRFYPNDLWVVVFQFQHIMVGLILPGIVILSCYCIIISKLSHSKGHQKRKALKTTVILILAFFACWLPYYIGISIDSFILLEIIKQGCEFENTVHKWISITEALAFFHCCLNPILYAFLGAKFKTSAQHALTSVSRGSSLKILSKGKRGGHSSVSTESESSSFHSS

Compared with B1, B2 is lower in “AUC (% of), CHTX, SUP B-15, 1.0 uM” value: 70.8% for the first, 25.9% for the second.

Compared with B3, B4 is lower in “AUC (% of), CHTX, SUP B-15, 1.0 uM” value: 178% for the first, 87.2% for the second.

First: B10
Second: B12
The “AUC (% of), CHTX, SUP B-15, 1.0 uM” value of the first is lower: 31.7% for the first, 63.5% for the second.

For B13, the “AUC (% of), CHTX, SUP B-15, 1.0 uM” value was 47.4%.

Going from B1 to B2, the “Max (% of), CHTX, SUP B-15, 1.0 uM” value falls from 55.8% to 31.5%.

First: B3
Second: B4
The “Max (% of), CHTX, SUP B-15, 1.0 uM” value of the first is higher: 194% for the first, 82.9% for the second.

Going from B10 to B12, the “Max (% of), CHTX, SUP B-15, 1.0 uM” value rises from 49.3% to 91.1%.

B13 was tested, and the “Max (% of), CHTX, SUP B-15, 1.0 uM” value was 37.6%.

For B1, the “Peak Ratio, CHTX, CEM, 0.01 uM” value was 1.

In the case of B1, the “Peak Ratio, CHTX, CEM, 0.03 uM” value is reported as 1.

In the case of B1, the “Peak Ratio, CHTX, CEM, 0.1 uM” value is reported as 0.2.

In the case of B1, the “Peak Ratio, CHTX, CEM, 0.3 uM” value is reported as 0.04.

For B1, the “Peak Ratio, CHTX, CEM, 3.0 uM” value was 0.2.

Going from B1 to B2, the “Peak Ratio, CHTX, SUP B-15, 1.0 uM” value rises from 0.04 to 0.2.

First: B3
Second: B4
The “Peak Ratio, CHTX, SUP B-15, 1.0 uM” value of the first is higher: 1 for the first, 0.2 for the second.

B10 and B12 are the same in “Peak Ratio, CHTX, SUP B-15, 1.0 uM” value: 0.2 for the first, 0.2 for the second.

In the case of B13, the “Peak Ratio, CHTX, SUP B-15, 1.0 uM” value is reported as 0.2.

Going from MGYQKKLRSMTDKYRI-NH2 (not fully specified (N-terminus); also: further groups not given here) [CXCR4 i1 loop compound 48] to B5, the “AUC (% of), CHTX, CEM, 1.0 uM” value falls from 53% to 50.9%.

Compared with B8, B9 is higher in “AUC (% of), CHTX, CEM, 1.0 uM” value: 69% for the first, 100% for the second.

Going from B10 to B11, the “AUC (% of), CHTX, CEM, 1.0 uM” value rises from 57.9% to 102%.

Compared with B12, B13 is lower in “AUC (% of), CHTX, CEM, 1.0 uM” value: 92.3% for the first, 37.5% for the second.

Going from MGYQKKLRSMTDKYRI-NH2 (not fully specified (N-terminus); also: further groups not given here) [CXCR4 i1 loop compound 48] to B5, the “Max (% of), CHTX, CEM, 1.0 uM” value rises from 53.5% to 62.7%.

First: B8
Second: B9
The “Max (% of), CHTX, CEM, 1.0 uM” value of the first is lower: 84.5% for the first, 93.1% for the second.

Compared with B10, B11 is higher in “Max (% of), CHTX, CEM, 1.0 uM” value: 57% for the first, 119% for the second.

Compared with B12, B13 is lower in “Max (% of), CHTX, CEM, 1.0 uM” value: 97.8% for the first, 59.7% for the second.

Compared with MGYQKKLRSMTDKYRI-NH2 (not fully specified (N-terminus); also: further groups not given here) [CXCR4 i1 loop compound 48], B5 is lower in “Peak Ratio, CHTX, CEM, 1.0 uM” value: 5 for the first, 0.2 for the second.

Compared with B6, B7 is lower in “Peak Ratio, CHTX, CEM, 1.0 uM” value: 1 for the first, 0.2 for the second.

B8 and B9 are the same in “Peak Ratio, CHTX, CEM, 1.0 uM” value: 1 for the first, 1 for the second.

MGYQKKLRSMTD-NH2 (not fully specified (N-terminus); also: further groups not given here) [CXCR4 i1 loop compound 33] and B10 are the same in “Peak Ratio, CHTX, CEM, 1.0 uM” value: 1 for the first, 1 for the second.

Compared with B11, B12 is lower in “Peak Ratio, CHTX, CEM, 1.0 uM” value: 0.2 for the first, 0.04 for the second.

B13 was tested, and the “Peak Ratio, CHTX, CEM, 1.0 uM” value was 0.04.

B8 was tested, and the “AUC (% of), CHTX, CEM, 1.0 um” value was 51.6%.

With B8 the “Max (% of), CHTX, CEM, 1.0 um” value was 59.8%.

B8 was tested, and the “Peak Ratio, CHTX, CEM, 1.0 um” value was 1.

B11 was tested, and the “Peak Ratio, CHTX, SUP B15, 1.0 uM” value was 0.2.
